Measurements taken from patent publication US20240228586A1.

Target: IL-12 receptor complex (IL-12Rb1 and IL-12Rb2) on preactivated primary mouse CD8+ T cells (mouse) (UniProt Q60837)
Assay: cell-based or functional assay

Chain of IL-12 receptor complex (IL-12Rb1 and IL-12Rb2) on preactivated primary mouse CD8+ T cells (mouse) (Q60837 20-738, chain 1 of 2): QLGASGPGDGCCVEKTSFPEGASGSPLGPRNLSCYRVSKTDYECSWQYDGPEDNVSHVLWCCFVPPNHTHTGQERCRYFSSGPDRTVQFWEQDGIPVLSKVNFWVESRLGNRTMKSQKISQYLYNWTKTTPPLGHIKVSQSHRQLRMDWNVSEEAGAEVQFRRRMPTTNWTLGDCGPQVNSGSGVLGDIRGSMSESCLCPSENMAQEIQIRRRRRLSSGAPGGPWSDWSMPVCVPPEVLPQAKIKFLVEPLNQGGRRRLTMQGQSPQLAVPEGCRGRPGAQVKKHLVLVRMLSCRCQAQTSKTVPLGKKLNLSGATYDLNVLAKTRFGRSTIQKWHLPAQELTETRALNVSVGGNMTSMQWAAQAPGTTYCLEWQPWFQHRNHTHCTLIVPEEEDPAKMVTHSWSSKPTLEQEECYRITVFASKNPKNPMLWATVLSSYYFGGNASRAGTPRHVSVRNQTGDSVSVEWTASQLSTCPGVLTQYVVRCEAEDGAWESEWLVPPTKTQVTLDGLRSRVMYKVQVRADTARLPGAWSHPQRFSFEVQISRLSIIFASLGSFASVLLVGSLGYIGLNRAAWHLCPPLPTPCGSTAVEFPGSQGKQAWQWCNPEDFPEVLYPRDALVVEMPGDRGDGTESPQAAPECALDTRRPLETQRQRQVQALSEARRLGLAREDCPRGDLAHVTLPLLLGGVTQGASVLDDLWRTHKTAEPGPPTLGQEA
Chain of IL-12 receptor complex (IL-12Rb1 and IL-12Rb2) on preactivated primary mouse CD8+ T cells (mouse) (chain, as listed by the source, chain 2 of 2): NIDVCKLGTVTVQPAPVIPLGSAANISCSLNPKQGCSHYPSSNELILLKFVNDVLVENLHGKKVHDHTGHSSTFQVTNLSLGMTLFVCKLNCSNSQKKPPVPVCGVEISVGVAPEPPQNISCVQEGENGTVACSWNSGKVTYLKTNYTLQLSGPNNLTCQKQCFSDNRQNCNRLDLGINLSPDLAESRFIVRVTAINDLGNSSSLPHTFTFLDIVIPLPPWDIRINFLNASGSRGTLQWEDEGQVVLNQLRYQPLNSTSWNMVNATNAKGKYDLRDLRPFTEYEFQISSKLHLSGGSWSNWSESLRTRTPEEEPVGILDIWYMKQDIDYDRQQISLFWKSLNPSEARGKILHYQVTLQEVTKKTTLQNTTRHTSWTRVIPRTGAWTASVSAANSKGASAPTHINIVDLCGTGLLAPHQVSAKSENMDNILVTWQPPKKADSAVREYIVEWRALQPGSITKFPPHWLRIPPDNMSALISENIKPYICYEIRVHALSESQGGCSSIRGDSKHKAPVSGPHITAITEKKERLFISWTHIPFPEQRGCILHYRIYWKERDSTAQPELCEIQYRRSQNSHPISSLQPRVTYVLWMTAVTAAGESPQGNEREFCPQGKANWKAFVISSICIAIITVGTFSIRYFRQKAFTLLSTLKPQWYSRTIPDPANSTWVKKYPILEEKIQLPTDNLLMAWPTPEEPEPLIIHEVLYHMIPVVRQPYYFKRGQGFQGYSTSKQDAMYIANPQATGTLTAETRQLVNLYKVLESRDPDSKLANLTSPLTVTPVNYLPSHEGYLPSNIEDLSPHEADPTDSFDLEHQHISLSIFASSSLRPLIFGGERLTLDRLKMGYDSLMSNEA

| Substance | STAT4 phosphorylation in preactivated primary mouse CD8+ T cells, EC50 compared with unmodified IL-12 (fold decrease) |
| --- | --- |
| M-L1-IL12 (mouse IL-12Rb1 mask fused through the (G3S)11 linker to the N-terminus of mouse p35, with mouse p40) (from UniProt P43432 23-335) | 100 |
| M-L1-IL12-CBD (from UniProt P04275 1670-1874) | 100 |
| M-L1-IL12-MSA (from UniProt P43432 23-335) | 100 |
